B1: full-length E2 ectodomain eE2 (residues 384-656, genotype J6), produced with a C-terminal protein-A tag and released by PreScission Protease (other)
chain: RTHTVGGSAAQTTGRLTSLFDMGPRQKIQLVNTNGSWHINRTALNCNDSLHTGFIASLFYTHSFNSSGCPERMSACRSIEAFRVGWGALQYEDNVTNPEDMRPYCWHYPPRQCGVVSAKTVCGPVYCFTPSPVVVGTTDRLGAPTYTWGENETDVFLLNSTRPPLGSWFGCTWMNSSGYTKTCGAPPCRTRADFNASTDLLCPTDCFRKHPDTTYLKCGSGPWLTPRCLIDYPYRLWHYPCTVNYTIFKIRMYVGGVEHRLTAACNFTRGDRC
modifications: N-linked glycans from GnTI- HEK293T cells; whether deglycosylated in the ELISAs is not stated
notes: Monomeric; also called eE2 (384-656)
B2: eE2(ΔHVR1) (residues 413-656, genotype J6) (other)
chain: LVNTNGSWHINRTALNCNDSLHTGFIASLFYTHSFNSSGCPERMSACRSIEAFRVGWGALQYEDNVTNPEDMRPYCWHYPPRQCGVVSAKTVCGPVYCFTPSPVVVGTTDRLGAPTYTWGENETDVFLLNSTRPPLGSWFGCTWMNSSGYTKTCGAPPCRTRADFNASTDLLCPTDCFRKHPDTTYLKCGSGPWLTPRCLIDYPYRLWHYPCTVNYTIFKIRMYVGGVEHRLTAACNFTRGDRC
modifications: glycosylated (SAXS sample)
notes: also called eE2(DHVR1); eE2 (DHVR1)

Assays:
[1] = target: human CD81, cellular receptor on the cells infected with HCVcc (human) (UniProt P60033); test: cell-based or functional assay
Sequence of human CD81, cellular receptor on the cells infected with HCVcc (human) (P60033 whole entry, the tested form may be a part): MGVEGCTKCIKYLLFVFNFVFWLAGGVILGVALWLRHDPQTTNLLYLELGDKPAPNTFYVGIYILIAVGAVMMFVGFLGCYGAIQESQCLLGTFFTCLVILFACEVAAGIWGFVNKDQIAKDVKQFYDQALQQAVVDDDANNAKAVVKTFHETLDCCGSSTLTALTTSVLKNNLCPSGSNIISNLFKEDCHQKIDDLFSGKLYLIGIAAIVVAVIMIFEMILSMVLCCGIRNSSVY

[2] = target: T1, Human CD81-LEL (residues 112-202), protein-A tag cleaved by PreScission Protease (human, UniProt P60033 112-202); test: ELISA, CD81-LEL coated, detection with 2A12 and anti-mouse-HRP
T1 construct: range 112-202
T1 sequence: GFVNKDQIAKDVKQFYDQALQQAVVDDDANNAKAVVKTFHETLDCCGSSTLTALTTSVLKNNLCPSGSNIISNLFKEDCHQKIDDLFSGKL

[3] = target: T1, Human CD81-LEL (residues 112-202), …; test: SAXS envelope of the complex

Row | Molecule | 50% blocking efficiency, HCVcc focus forming units [1] | other results
1 | purified eE2 (J6 genotype 2a E2 ectodomain aa 384-664, released from the Fc tag by thrombin) (from UniProt P26660 385-664) | 25 to 150 µg/mL | –
2 | purified eE2-C656S (J6 E2 ectodomain aa 384-664 with C656S, released from the Fc tag by thrombin) (from UniProt P26660 385-664) | 25 to 150 µg/mL | –
3 | B1 | – | binding result [2]: binds
4 | B2 | – | binding result [3]: binds

Reference: patent US20150368668A1 (RUTGERS THE STATE UNIVERSITY OF NEW JERSEY, published 2015)
